Test results taken from patent publication US20020044944A1.

B1: shFas(nd29)-hinge (receptor)
chain: TQNLEGLHHDGQFCHKPCPPGERKARDCTVNGDEPDCVPCQEGKEYTDKAHFSSKCRRCRLCDEGHGLEVEINCTRTQNTKCRCKPNFFCNSTVCEHCDPCTKCEHGIIKECTLTSNTKCKEEGSRSNEPKSCDKTHTCPPCP
B2: shFas(nd29)-hinge, higher molecular weight gel filtration fraction (fractions 1 and 2, seemed to correspond to a dimer) (receptor)
chain: TQNLEGLHHDGQFCHKPCPPGERKARDCTVNGDEPDCVPCQEGKEYTDKAHFSSKCRRCRLCDEGHGLEVEINCTRTQNTKCRCKPNFFCNSTVCEHCDPCTKCEHGIIKECTLTSNTKCKEEGSRSNEPKSCDKTHTCPPCP

Columns and labels:
human Fas ligand (human) = human Fas ligand (human) (UniProt P48023); assay: cell-based or functional assay
mouse Fas ligand (mouse) = mouse Fas ligand (mouse) (UniProt P41047); assay: cell-based or functional assay
Chain of UniProt P41047 (P41047 whole entry): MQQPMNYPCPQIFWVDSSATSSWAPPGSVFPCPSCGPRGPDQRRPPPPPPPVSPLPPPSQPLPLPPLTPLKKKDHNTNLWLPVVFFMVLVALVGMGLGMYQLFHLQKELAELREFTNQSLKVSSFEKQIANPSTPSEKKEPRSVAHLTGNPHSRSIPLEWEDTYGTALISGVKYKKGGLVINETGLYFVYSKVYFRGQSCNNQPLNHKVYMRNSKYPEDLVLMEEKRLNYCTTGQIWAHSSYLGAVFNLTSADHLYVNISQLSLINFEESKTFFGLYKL

Chain of UniProt P48023 (P48023 whole entry): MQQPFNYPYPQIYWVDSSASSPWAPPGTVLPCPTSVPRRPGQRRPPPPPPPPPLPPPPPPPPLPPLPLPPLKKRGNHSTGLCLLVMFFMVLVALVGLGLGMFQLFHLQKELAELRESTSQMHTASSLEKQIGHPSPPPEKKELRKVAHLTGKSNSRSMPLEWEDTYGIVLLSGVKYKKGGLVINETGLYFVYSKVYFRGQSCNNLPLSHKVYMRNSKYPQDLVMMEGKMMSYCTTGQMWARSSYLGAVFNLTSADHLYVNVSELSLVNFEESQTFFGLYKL

Binder	specific cytotoxicity inhibition activity (51Cr release; 1A12 effector cells, WC8 target cells; FIG. 11) (times higher than hFas-Fc) (human Fas ligand (human))	specific cytotoxicity inhibition activity (51Cr release; FLm14 effector cells, W4 target cells; FIG. 12) (times higher than hFas-Fc) (mouse Fas ligand (mouse))	cytotoxicity inhibition activity by the assay described in Inventive Example 8 (human Fas ligand (human); scale: times stronger than the lower molecular weight fraction)
B1	3 to 10	3 to 10	–
B2	–	–	> 50
